# B1: CrmE10 (Croceicoccus marinus) (protein)
# chain: MADGEAAGQQADAVMPTGPAIDVLAFGDSLFAGYRLDRDESYPARLQAALRERGLNVNVTNAGVSGDTTAAGLQRIDFVLDSMAGEPDLVLLELGANDMLRGLPAEEARRNLDTILQRLDQRDIPVMVYGMRAAPNLGGDYGRSFDSIFPDLADKYDAELVPFFIEPLIFDRSLVQQDQLHPTAQGVDAMVEQTVEQVEDRIDDL
# notes: expressed in E. coli BL21 (DE3) from pSMT3, N-terminal His-Sumo tag removed with ULP1; monomer in solution by MALS, domain-swapped dimer in crystal
# B2: AlinE4 (Altericroceibacterium indicum) (protein)
# chain: SMGESRVILAFGDSLFAGYGLDKGESYPAKLETALRSHGINARIINAGVSGDTTAAGLQRIKFVLDSQPDKPELAIVELGGNDLLRGLSPAEARQNLSGILEELQRRKIPILLMGMRAPPNLGAKYQREFDGIYPYLAEKYDAKLVPFFLEAVADRPDLIQKDHVHPTARGVEELVSATSNAVAKALPAKK
# notes: as for B1
# Key:
# [1] = substrate: CCCCCC(=O)Oc1ccc([N+](=O)[O-])cc1; test: purified protein; format: biochemical, Croceicoccus marinus; settings: 100 mM Tris-HCl pH 7.5, 20 °C, substrate 0.05-2 mM
# [2] = substrate: CCCC(=O)Oc1ccc([N+](=O)[O-])cc1; test: purified protein; format: biochemical, Altericroceibacterium indicum; settings: 100 mM Tris-HCl pH 7.5, 40 °C, substrate 0.05-2 mM
Protein,Km [1],kcat [1],Km [2],kcat [2]
B1,160 µM,29.4 s⁻¹,–,–
B2,–,–,100 µM,25.8 s⁻¹

# Source: publication PMC7294632, “Structure-guided protein engineering increases enzymatic activities of the SGNH family esterases” (Biotechnology for Biofuels, 2020)
